The values that follow come from article PMC11257031 (Archives of biochemistry and biophysics, 2023).

The series concerns the molecule itself. The experiment in a line: SEC.

B1: Zymomonas mobilis pyruvate kinase (enzyme, UniProt O86020 1-475, looked up)
chain: MTEGLFPRGRKVRVVSTLGPASSTAEQIRDRFLAGADVFRINMSHGTHDEKKVIVDNIRALEKEFNRPTTILFDLQGPKLRVGDFKEGKVQLKEGQTFTFDQDPTLGDETRVNLPHPEIFKALDKGHRLLLDDGKIVVRCVESSPTKIVTRVEVPGPLSDHKGFNVPDVVIPLAALTPKDRKDLDFALKEKADWVALSFVQRVEDVIEAKELIKGRAPLLVKLEKPAAIENLESILAATDAVMVARGDLGVECLPESVPPTQKRIVERSRQLGKPVVVATAMLESMIKAPAPTRAEVSDVANAIYEGADGIMLSAESAAGDWPHEAVNMMHRIASYVENAPGYIERVRFTPTPAEPTTVDALAENASKTAETVGAKAIIVFTETGKTAQRVSRARPVAPILSLTPDAEVARRLGLVWGAQPVQVSTVKTLDEAKKLAAETAKKYGFAKAGDKLVVVAGEPFGKAGTTNIVDVIEA
Regarding B1, the “stoichiometry N” value came out at 2.

The term stoichiometry N denotes a count of units in the complex or per binding partner.
